# Test results: patent publication US20240209093A1 (I MAB BIOPHARMA, published 2024)
# Residue numbers refer to the chain shown, from its start.
# T1: His-tagged human TIGIT-ECD protein (human, UniProt Q495A1 22-141)
# T1 construct: extracellular domain; also called hTIGIT-his
# T1 sequence (looked up): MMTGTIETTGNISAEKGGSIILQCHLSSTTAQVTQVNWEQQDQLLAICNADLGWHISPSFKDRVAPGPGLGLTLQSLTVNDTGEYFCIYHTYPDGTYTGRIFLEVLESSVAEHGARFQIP
# B1: 34C5 (antibody, V domains shown)
# VH: QVQLVQSGAEVKKPGSSVKVSCKASGYTFSSYYMHWVRQAPGQGLEWMGEINPNNARINFNEKFKTRVTLTVDKSTSTAYMELSSLRSEDTAVYYCTRGYYRYGAWFGYWGQGTLVTVSS
# VL: DIQMTQSPSSLSASVGDRVTITCRASQDISDYLNWYQQKPGKAPKLLIYYISRLHSGVPSRFSGSGSGTDYTLTISSLQPEDFATYYCQQGHTLPWTFGGGTKVEIK
# notes: also called anti-CD47 antibody 34C5; parental CD47 antibody 34C5
# B2: 34C5-L-93VH6-IgG1 (bispecific antibody)
# heavy: not shown
# light: DIQMTQSPSSLSASVGDRVTITCRASQDISDYLNWYQQKPGKAPKLLIYYISRLHSGVPSRFSGSGSGTDYTLTISSLQPEDFATYYCQQGHTLPWTFGGGTKVEIKGGGGSGGGGSGGGGSGGGGSEVQLVESGGGLVQPGGSLRLSCAASGFTFTFRHYVMGWFRQAPGKEREFVAAISWSGSGSYYADSVKGRFTISRDNSKNTVYLQMNSLRAEDTAVYYCAADMTTRMSQASREYDYWGQGTLVTVSSRTVAAPSVFIFPPSDEQLKSGTASVVCLLNNFYPREAKVQWKVDNALQSGNSQESVTEQDSKDSTYSLSSTLTLSKADYEKHKVYACEVTHQGLSSPVTKSFNRGEC
# notes: Symmetric 'two to two' anti-CD47/PD-L1 bispecific
# B3: 13H3 (antibody, V domains shown)
# VH: EVQLVESGGGLVKPGGSLRLSCAASGLTFERAWMNWVRQAPGKGLEWVGRIKRKTDGETTDYAAPVKGRFSISRDDSKNTLYLQMNSLKTEDTAVYYCAGSNRAFDIWGQGTMVTVSS
# VL: DIVMTQSPDSLAVSLGERATINCKSSQSVLYAGNNRNYLAWYQQKPGQPPKLLINQASTRASGVPDRFSGSGSGTEFTLIISSLQAEDVAIYYCQQYYTPPLAFGGGTKLEIK
# notes: also called anti-CD47 antibody 13H3; parental CD47 antibody 13H3
# B4: ALP-Tan-3p-93 (chimeric) (antibody, V domains shown, not shown: a dimerising Fc or GST; small tags and cut ends)
# VH: QVQLVESVGGLVQPGDSLRLSCLASGRTFTFRHYVMGWFRQAPGKEREFVAAISWSGSGSYYADSVKGRFTISRDNSKNMVFLQMNGLKPEDTAVYYCAADMTTRMSQASREYDYWGQGTQVTVSS
# notes: Called chimeric; also called ALP-Tan-3p-93 chimeric antibody
# B5: 93-VH-8 (VHH)
# VHH: EVQLVESGGGLVQPGGSLRLSCAASGRTFTFRHYVMGWFRQAPGKGLEFVAAISWSGSGSYYADSVKGRFTISRDNSKNTVYLQMNSLRAEDTAVYYCAADMTTRMSQASREYDYWGQGTLVTVSS
# notes: Humanized
# B6: 112-VHH5-PTM (VHH)
# VHH: EVQLVESGGGLVQPGGSLRLSCAASGSIFSSGTQFSDSKIDWYRQAPGKQRDWVAGIFSTGSTIYEDSVKGRFAISRDNAKNSLYLQMNSLRAEDTAVYYCRVIGRGILAWGQGTLVTVSS
# notes: Humanized
# B7: ALP-Tan-3p-112 (chimeric) (antibody, V domains shown, not shown: a dimerising Fc or GST; small tags and cut ends)
# VH: B6 VHH with E1Q, Q34N, V54I, S83M, L84G, R92K, A93P, L116Q
# notes: Called chimeric
# B8: 112-VHH7-PTM (VHH)
# VHH: B6 VHH with D52E, V54I, S83M
# notes: Humanized
# B9: 112-VHH3-PTM (VHH)
# VHH: B6 VHH with D52E, A55S, A74T
# notes: Humanized
# B10: 93-VH-2 (VHH)
# VHH: B5 VHH with R27F, F39V, G46E, L47R, F49W, A51S
# notes: Humanized
# B11: 93-VH-7 (VHH)
# VHH: B5 VHH with R27F, V81L
# notes: Humanized
# B12: 93-VH-9 (VHH)
# VHH: B5 VHH with V81L
# notes: Humanized
# B13: 93-VH-3 (VHH)
# VHH: B5 VHH with R27F, V81L, A100K
# notes: Humanized
# B14: 93-VH-4 (VHH)
# VHH: B5 VHH with R27F
# notes: Humanized
# B15: 93-VH-5 (VHH)
# VHH: B5 VHH with R27F, G46E, L47R, V81L, A100K
# notes: Humanized
# B16: TIGIT-Fc-93-VH6 (bispecific antibody, human IgG1, kappa)
# heavy: not shown
# light: DIVMTQSPSSLSASVGDRVTITCKASQDVDTAVAWYQQKPGKAPKLLIYWASARHTGVPSRFSGSGSGTDFTFTISSLQPEDIATYYCQQYSNYPLTFGQGTKLEIKRTVAAPSVFIFPPSDEQLKSGTASVVCLLNNFYPREAKVQWKVDNALQSGNSQESVTEQDSKDSTYSLSSTLTLSKADYEKHKVYACEVTHQGLSSPVTKSFNRGEC
# notes: Two 93-VH6 fused to the C-termini of the anti-TIGIT heavy chains; also called TIGIT-Fc-PD-L1 format
# B17: TIGIT-Fc-93-VH6*2 (bispecific antibody, human IgG1, kappa)
# heavy: not shown
# light: B16 light
# notes: Four 93-VH6, two in tandem at the C-terminus of each anti-TIGIT heavy chain; also called TIGIT-Fc-PD-93-VH6*2; TIGIT-Fc-PD-L1*2 format
# B18: TIGIT-CL-93-VH6 (bispecific antibody, human IgG1, kappa)
# heavy: not shown
# light: DIVMTQSPSSLSASVGDRVTITCKASQDVDTAVAWYQQKPGKAPKLLIYWASARHTGVPSRFSGSGSGTDFTFTISSLQPEDIATYYCQQYSNYPLTFGQGTKLEIKRTVAAPSVFIFPPSDEQLKSGTASVVCLLNNFYPREAKVQWKVDNALQSGNSQESVTEQDSKDSTYSLSSTLTLSKADYEKHKVYACEVTHQGLSSPVTKSFNRGECGGGGSGGGGSGGGGSGGGGSEVQLVESGGGLVQPGGSLRLSCAASGFTFTFRHYVMGWFRQAPGKEREFVAAISWSGSGSYYADSVKGRFTISRDNSKNTVYLQMNSLRAEDTAVYYCAADMTTRMSQASREYDYWGQGTLVTVSS
# notes: Two 93-VH6 fused to the C-termini of the anti-TIGIT light chains; also called TIGIT-CL-PD-L1 format
# B19: TIGIT antibody (antibody, V domains shown)
# VH: EVKLVESGGGLVQPGGSLRLSCAASGFTFSDYYMYWVRQAPGKRLEWVASITKGGGSTYYPDTLKGRFTISRDNAKNSLYLQMNRLRAEDTAVYYCARQSSYDFVMDYWGQGTTVTVSS
# VL: DIVMTQSPSSLSASVGDRVTITCKASQDVDTAVAWYQQKPGKAPKLLIYWASARHTGVPSRFSGSGSGTDFTFTISSLQPEDIATYYCQQYSNYPLTFGQGTKLEIK
# notes: Only variable domains are tied to the parental antibody; also called TIGIT Ab; parental TIGIT antibody
# B20: ALP-Tan-3p-93 (VHH)
# VHH: B4 VH
# B21: ALP-Tan-3p-112 (VHH)
# VHH: B6 VHH with E1Q, Q34N, V54I, S83M, L84G, R92K, A93P, L116Q
# B22: ASP-3P-46 (VHH)
# VHH: QVQLVESGGGLVQPGGSLRLSCAASARSINGMEWYRQAPGERRELVAGITAGGSAYYTDTVKGRFTISRDNAENTGYLQMNSLSPDDTAVYYCRRQYGPNWYWGQGTQVTVSS
# notes: also called ASP-30-46
# Biological target: T2, Tag1-CD47 (UniProt Q08722 19-139)
# T2 construct: Bought kit reagent
# T2 sequence (Q08722 19-139 limits assumed): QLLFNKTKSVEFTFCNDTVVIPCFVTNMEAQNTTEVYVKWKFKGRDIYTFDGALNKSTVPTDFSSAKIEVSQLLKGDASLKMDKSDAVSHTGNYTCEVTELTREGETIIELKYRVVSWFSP
# Test: HTRF CD47/SIRPα binding assay (Cisbio): blocking of Tag2-SIRPa binding to Tag1-CD47; axis numbers -3 to 3 read as log10 of nM
# Text: Fluorescence data were read on a PerkinElmer Envision plate reader using laser as light source.
row,IC50 (read off the curve) [nM],Binder
1,~0.7,B1
2,~1,B2
3,~1,B3

# Biological target: T3, human PD-L1 on cells (human, UniProt Q9NZQ7 19-290)
# T3 construct: whole, on cells; also called Raji cells overexpressing human PD-L1; Raji-PD-L1 cells
# T3 sequence (Q9NZQ7 19-290): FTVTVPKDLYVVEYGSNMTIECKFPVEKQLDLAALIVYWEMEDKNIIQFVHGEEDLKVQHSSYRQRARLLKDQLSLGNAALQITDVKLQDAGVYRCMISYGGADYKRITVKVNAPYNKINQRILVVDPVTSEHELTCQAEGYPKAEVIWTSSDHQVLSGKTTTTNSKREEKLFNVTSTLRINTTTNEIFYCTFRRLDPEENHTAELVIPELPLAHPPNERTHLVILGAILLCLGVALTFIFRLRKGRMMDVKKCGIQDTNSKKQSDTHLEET
# Test: flow cytometry on RKO cells, which carry both human CD47 and human PD-L1; APC-labelled secondary antibody; signal not resolved between the two arms
# Description: RKO cells are human colon carcinoma cell lines that express endogenous level of human CD47 and human PD-L1 on the surface. RKO cells were incubated with serial diluted anti-CD47/PD-L1 bispecific antibodies, parental CD47 or PD-L1 monospecific antibodies at 4° C. for 30 minutes. Then cells were washed with FACS buffer three times, followed by incubation with APC-labeled secondary antibody at 4° C. for 30 minutes. Then cells were washed with FACS buffer for three times. Binding was measured by flow cytometry.
row,binding result,Binder
1,binds,B2

# Biological target: T4, human PD-L1-his (human, UniProt Q9NZQ7 19-238)
# T4 construct: also called hPD-L1-his; human His-PD-L1
# T4 sequence (Q9NZQ7 19-238 limits assumed): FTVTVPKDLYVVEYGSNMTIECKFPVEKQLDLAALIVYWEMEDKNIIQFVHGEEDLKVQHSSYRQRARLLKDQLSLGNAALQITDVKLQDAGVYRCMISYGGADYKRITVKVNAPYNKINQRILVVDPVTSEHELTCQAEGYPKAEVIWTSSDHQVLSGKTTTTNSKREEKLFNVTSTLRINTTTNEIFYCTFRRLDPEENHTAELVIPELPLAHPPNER
# Test: SPR, Biacore, full kinetics, antigen 100-1.5625 nM
Kd [nM],koff [s⁻¹],kon [M⁻¹ s⁻¹],Binder
0.559,0.000107,192000,B4
1.8,0.000239,133000,B5
0.92,0.00149,1.62e+06,B6
0.264,0.000566,2.14e+06,B7
2.32,0.00393,1.69e+06,B8
2.4,0.00498,2.07e+06,B9
26.3,0.00162,61500,B10
3.87,0.000339,87600,B11
2.2,0.00031,140000,B12
2.36,0.00115,486000,B13
1.82,0.000147,80500,B14
2.77,0.00125,452000,B15

# Biological target: T4, human PD-L1-his
# Test: SPR, Biacore T200, antibody captured on protein A chip, hPD-L1-his 6.25-100 nM as analyte
# Description: The binding affinity of the PD-L1/TIGIT bsAb to recombinant human his-tagged PD-L1 protein was tested by BIACORE®. […] A series of dilutions of human PD-L1 protein (6.25 nM-100 nM) were injected over captured antibody at a flow rate of 10 μL/min. The antigen was allowed to associate for 180 s and dissociate for 1200 s. All the experiments were carried out on a Biacore T200. Data analysis was carried out using Biacore T200 evaluation software.
Kd [nM],koff [s⁻¹],kon [M⁻¹ s⁻¹],Binder
1.15,4.25e-05,37100,B16
5.4,0.000118,21900,B17
3.97,0.000143,35900,B18

# Biological target: T1, His-tagged human TIGIT-ECD protein
# Test: ELISA on His-tagged human TIGIT
row,EC50 (read off the curve) [nM],Binder
1,~0.5,B16
2,~0.6,B17
3,~0.5,B18
4,~0.2,B19

# Biological target: T4, human PD-L1-his
# Test: ELISA, plate coated with human His-PD-L1, detection goat anti-human IgG Fc HRP [panel A]
# Text: Binding of the anti-PD-L1/TIGIT bsAb molecules with human PD-L1 was further analyzed by ELISA.
row,EC50 (read off the curve) [nM],Binder
1,~2,B16
2,~0.8,B17
3,~1,B18

# Biological target: T4, human PD-L1-his
# Test: SPR, Biacore T200
Kd [nM],koff [s⁻¹],kon [M⁻¹ s⁻¹],Binder
0.459,7.8e-05,154000,B20
0.479,0.000235,490000,B21
1.81,0.00128,710000,B22

# Biological target: T1, His-tagged human TIGIT-ECD protein
# Test: SPR, Biacore T200, antibody captured on protein A chip, hTIGIT-his 0.78-12.5 nM as analyte
# Text: The antibodies were captured by Protein A chip. […] The association phase was 180 s and the dissociation phase was 1200 s.
Kd [nM],koff [s⁻¹],kon [M⁻¹ s⁻¹],Binder
0.112,0.000139,1.24e+06,B16
0.0912,0.000131,1.43e+06,B17
0.103,0.000176,1.72e+06,B18
0.144,0.000172,1.19e+06,B19
